Assay: soluble on expression in E. coli; label from the status in PepcDB or PDB records

## VMHSSLYTSVDDKLHGLSENPQAVIQLAINRATEEIKDLENARADASKVEIKPNVSSNTEVILFDKDFTQLLSGNRFLGLDKIKLEKKELGHIYQIQVFNSYGQEEIYRVILMETNISSVSTNIKYAAVLINTSQLEQASQKHEQ
  soluble on expression in E. coli: not soluble

## MNIQPTIQSGITSQNNQHHQTEQIPSTQIPQSELPLGCQAGFVVNIPDDIQQHAPECGETTALLSLIKDKGLLSGLDEYIAPHLEEGSIGKKTLDMFGLFNVTQMALEIPSSVSGISGKYGVQLNIVKPDIHPTSGNYFLQIFPLHDEIGFNFKDLPGPLKNALSNSNISTTAVSTIASTGTSATTSTVTTEPKDPIPWFGLTAQVVRNHGVELPIVKTENGWKLVGETPLTPDGPKANYTEEWVIRPGEADFKYGASPLQATLGLEFGAHFKWDLDNPNTKYAVLTNAAANALGALGGFAVSRFASTDPMLSPHIGAMVGQAAGHAIQYNTPGLKPDTILWWAGATLGAADLNKAEFEVARFTDYPRIWWHAREGAIFPNKADIEHATGADIRAMEEGIPVGQRHPNPEDVVIDIESNGLPHHNPSNHVDIFDIIQETRV
  soluble on expression in E. coli: not soluble

## MGSDKIHHHHHHMMNLSELAPDYIRAIQPYQPGKPISELVRDLGLNKDEVVKLASNENPLGTSPLAKEAMIQALNESARYPDGSGFELKAALSERLGMPADQIVLGNGSNDVLELATRIFLHPDSTAIYSQYAFAIYPLLAQAVGARGIAVPARNYGHDLEAMLAAVTPETRIIFIANPNNPTGTLCDARDLLRFMERVPQDVLVILDEAYDEYLPEANKANSIAWLKNFQNLVITRTFSKAYGLASVRVGFALAHADIANLMNRIRQPFNVNSIGLAAAQAALKDVEFVKLAYMTNRTGMQQMTHGLDQLGIEYIPSFGNFVCCHIDGHPANTLKIYRNLLQQGVIVRPLGNYDMLNHLRVTIGIEEENKRFLQALEQALKELD
  soluble on expression in E. coli: not soluble

## MEEVVRFECRDSNLEIYVVQPGERLSIFGSCSFLCLAGNASINDYNLPAVSCESSNFMKISAPQRMDVPAILQVFKSGPSYKHARLKFRLKEVAPKNYEKIMEMIGTTEPSVFIFSKILDFAEETVSGVVSNFLIHSSIQKQIILPPHFFISRDDFIIYPQQQEAQLKSQMNRLNKLRNDGQRTTILPIGHKGAGKSNLMRSLVNRCLSNGYEHVYVLDCDIGQSEFTPCGCLSLTKVTSPILGKPHGHQRASFENSFFYGDITVRDINLYMDIFERLFNKFKVISEPGSVCIINSMGWVTDEGAEILDGITRVTDPELFVEIFRDQTEARYQFLNRAEHNIVEIFANNSIGVIGLPPQKRLPAALIRELTIVGYFSSRLPRPSLASFPKVAPYKLRFENVTICVPVDLLVEDSHVFSSINTQIMALCINNTDLKPRKLYGKDDLPSICVIDGNSPALQCIGFGIIRGVSVEERIIFVVTPVDLLKLEEPPVLVRGMRIQTPTMFYTADPYNRCPYVLNDLEQGNSDNTLDGLYQPSVNTTQFKRSRRF
  soluble on expression in E. coli: not soluble

## MKCSKCGREAIYFARYEGRYYCHKHFNELVEGKVKRTIRKYRMIKRGEKVGVAVSGGKDSVVLMHILAKLRKKFPFELVAITIDEGIKGYRDKSVEVARKNAELLGVEHHIYRFKDFIGFTLDETVEIMGPREERVGACSYCGVWRRWLLNKAAEELGVDKLALGLNLDDEVQVFLMNLMRGDVARLGRTGPYYEVIHEGLVPRIKPLREVPEKEIVLYAVLNNIEVDLSECPYATEAFRAEIRDWLNEMEEKHPGTKYQLLRSYDKIFPLLAKTYAKEVKLNRCKICGQPTSGEICKACQFRLQVKEKSENLKFSLTK
  soluble on expression in E. coli: not soluble

## MSLFLSNVILHQLRKNDNDELVVNYRAESLRNDTSTENLVAELHRVFNAKAGKGFGCFKSDSEFQLWLQEMRRGTLPFYEFSQQSAQRLKNELAKYPFADEGILVMAEYQSLATDYLFIGLLPLNQSLKVTEGLDISATDYLDINKMDIVARIDLSSYETDKESKRYLSYIKGRVGRKVADFFLDFLQADIGLDTKQQNQVLMQAVEDFCADAKFEKEEVISYKKQVYEYCNDQIKAGDEVRVQELSGELPPSNEGVNFFDFTREQGYQLEESFPADRSTVRKLTKYVGAGGGLNLSFDSLLLGERVFYDPETDTLTIKGTPPNLRDQLTRLRLEHHHHHH
  soluble on expression in E. coli: soluble

## MSLLEKINSSTCTLRFKNDWLKIFTCPVPSSDFLSFVGVATIDAPQHAVLSLLYDIESATEWVWKTREMRVLQELADDNEGRVVYQVVSAPWPVSDREIISRSTAYKDPETGEVFIKIESLPDFIPETSNCVRVRKLEGAWNILPLSENSCRVVFRLHIEPAGEIPSWLANIAVIDTPYHTLNNMRDMVKREKYKNPVGAPLKESTEGIIRNYNDFITELEHHHHHH
  soluble on expression in E. coli: soluble

## SPSPWGWFAVTACGAQRNNFEEPVALQEMDTSNGVLLPFYDPDSSIVYLCGKGDSSIRYFEITDEPPFVHYLNTFSSKEPQRGMGFMPKRGLDVSKCEIARFYKLHERKCEPIIMTVPRKSDLFQDDLYPDTPGPEPALEADEWLSGQDAEPVLISLRDGYVPPKHRELRVTKRNILDVRPPSGPRRSQSASDAPLSQHTLETLLEEIKALRERVQAQEQRITALENMLCELVDGTD
  soluble on expression in E. coli: soluble

## MKVTIIGASGRVGSATALLLAKEPFMKDLVLIGREHSINKLEGLREDIYDALAGTRSDANIYVESDENLRIIDESDVVIITSGVPRKEGMSRMDLAKTNAKIVGKYAKKIAEICDTKIFVITNPVDVMTYKALVDSKFERNQVFGLGTHLDSLRFKVAIAKFFGVHIDEVRTRIIGEHGDSMVPLLSATSIGGIPIQKFERFKELPIDEIIEDVKTKGEQIIRLKGGSEFGPAAAILNVVRCIVNNEKRLLTLSAYVDGEFDGIRDVCIGVPVKIGRDGIEEVVSIELDKDEIIAFRKSAEIIKKYCEEVKNL
  soluble on expression in E. coli: soluble

## MEALKRKIEEEGVVLSDQVLKVDSFLNHQIDPLLMQRIGDEFASRFAKDGITKIVTIESSGIAPAVMTGLKLGVPVVFARKHKSLTLTDNLLTASVYSFTKQTESQIAVSGTHLSDQDHVLIIDDFLANGQAAHGLVSIVKQAGASIAGIGIVIEKSFQPGRDELVKLGYRVESLARIQSLEEGKVSFVQEVHS
  soluble on expression in E. coli: soluble

## MGSDKIHHHHHHMSDSAKQPELWLMGLGCEEERSTAVLDYLRHAGYSVVCRGRDDFGDTKPLGVVLDVSPFSHDGWGILLDIKNNPATRDVPILPVYLSQEGKIGGVFPAAGFFTLPIDTDYMMKKLTVLGLTDEADTWDLQVMVISKKGEESVAKAITSLGFEVVNAYTGKEAVALATTGRAYMIFCSVTLPDMHSFELLERFRLYPQVRNVPFFVLVKDAMKEGERLALSRQMDHLVRKKELSRDEFLAYLRRRG
  soluble on expression in E. coli: not soluble

## TPGFSLGFIVNMRLHDHFDLRLLPTVGFYSRSIQYDFIKTSEIQTIESTFVEFPLLLKYKSQRRNNSRLYVTGGFKASIEAGAKKKQRKSTDLRTNGFDLCLDMGVGMDIYCPLFKFSPEIRYSHGLLNLLNNDPNVYSSSLSRLSSNTISLFFNFE
  soluble on expression in E. coli: not soluble

## MWIEELANGKFKYIERYTDPLTNKYKKVSVTLDKNSSQAQKKAGLILQEKIEDRLAIRNHSEMTYGELKKEYLKQWIPTVKDSTKRGYLVSDSHIATVLPDDTIINKLTKRDIRLIIDKLLKHNSYHVTHKCRKRLHAIFSYAIQMDYMTSNPTENVLVPKPKDDYKPEKVLYLTSNEVYDLCNRMIDNDEQTLADIVLFMFLTGVRYGELSCLTYDKIDFENKEILINATYDFNTREITTTKTKKSTRKISVSDNILDIVNRQKKTSSFVFPNSNGVPILNAYINKRLKIYGDYHTHLFRHSHISFLAEKGIPLNAIMDRVGHSDPKTTLSIYSHTTVNMKEIINKQTAPFVPLLKSE
  soluble on expression in E. coli: not soluble

## MGHHHHHHSHCDSDCLWVGLAGPQILPPCRSIVRTLHQHKLGRASWPSVQQGLQQSFLHTLDSYRILQKAAPFDRRATSLAWHPTHPSTVAVGSKGGDIMLWNFGIKDKPTFIKGIGAGGSITGLKFNPLNTNQFYASSMEGTTRLQDFKGNILRVFASSDTINIWFCSLDVSASSRMVVTGDNVGNVILLNMDGKELWNLRMHKKKVTHVALNPCCDWFLATASVDQTVKIWDLRQVRGKASFLYSLPHRHPVNAACFSPDGARLLTTDQKSEIRVYSASQWDCPLGLIPHPHRHFQHLTPIKAAWHPRYNLIVVGRYPDPNFKSCTPYELRTIDVFDGNSGKMMCQLYDPESSGISSLNEFNPMGDTLASAMGYHILIWSQEEARTRK
  soluble on expression in E. coli: not soluble

## MFNKASFLTRLVASSVRVSEAAGGLIKNVMAGGDLKIIDKSEHGSGYDPQTEADRRAQYCIVQSLQKHFKNINIIGEEEDTTACPEIEMGFSADVLQMERLMSTELKNIQENDVVVWVDPLDGTSEVALAVKNKNMALLEQVTVLIGIAYKGRPVAGIIHQPYHEKLGRTVWAIQGCGVHGVVPATGNAQKIVVTTRSHLSESVSNALEALKTRNLADSVEKVGGAGFKVLKVLEGCAAYVFASAGCKKWDTCAVEAVLTAAGGTLTDISGRDIRYEPGVQLNNTGGVLATASWVKHKDYIDTIPQEIKNMLPEISSKK
  soluble on expression in E. coli: not soluble

## MGSDKIHHHHHHVLVRRLAQAPVPIAGVAVLGTITPEDQQAAEDARLPLLQLPEGVDLREVEREITRLITDYEAQFERRAARLYDLLTQCSLQGGGISGLLDILHERTGQSVAFYASNGVLRAQRGRGQSRLALQALRPNGRGETTLLNQQIWVEPIGNSGLPIGYVAIAGTLLDPWDRTAAQRGALALALELAKEQAVQAAEERLRGDFIAGILAGAPGDLAAVIQRGQELGYTLHLPHTAMLVHIDDASTATLARAATNIQNELKRLGVNAPISRRESNVLCMLPTTSVTRLRELTEQLRERLRLDHPNVVIAIGTPATHLTEWRRSVEEAEQSLSLGRQIFGNDRVLAFGDLGVYRLLIRLRETPELWSFYRETLSSLAEYDKRQHADLIKTLEAYFNHLGNLRATSEALHVHRNTLLYRLERIKEISGMDLDNAEEHFALWLAVRAHRILATLEE
  soluble on expression in E. coli: not soluble

## MGSDKIHHHHHHMIDFHVHTTFSDSTMTPAVAVRHAKMAGYRAVALTDHADHANMDLILRQTLPLARKYSLYAGIEVFAGVELTHVPPALIPEAVREARAMGAQLVLVHGETISDAVETGTNLAAIEGGVDILAHPGLVSDEDAAYAAERGVRFEITTRPGHALTNGHVAMAARRHGVRCVINNDAHHSRDFVNPDHRLAVALGAGLTTAEVTAAEAESRTLLGRLLREVR
  soluble on expression in E. coli: not soluble

## MGEAAVAEGPCPLLEDSFTRFSSQSNVYGLAGGADGRGELLAATLKGKVLGFRYQDLRQKIRPVAKELQFNYIPVDAEIVSIDTFNKSPPKRGLVVGITFIKDSGDKGSPFLNIYCDYEPGSEYNLDSIAESCLNLELQFTPFQLCHAEVQVGDQLETVFLLSGNDPAIHLYKENEGLHQFEEQPVENLFPELTNLTSSVLWLDVHNLPGSSQRLSALGCQSGYVRVAHVDQKNQEILQTWTIQQDGPISRVIVFSLSASEATQDSPQQEGYSLLVASMLEPAVVYWDLLNKGLDDQLLLPGSDQFDSVLCGLVTDVDLDGQLEVLVATYGQELLCYKYRGLPEDSRGFRLLWRRSFASPLLAMAHVDLTGDGLRELAVISLKGVHILQHSLIQASELVLTRLRHQVEQRKHQQGLGDRVGPRPVEHPAS
  soluble on expression in E. coli: soluble

## MAHHHHHHMTTLYDELYLLFDEYIVRNCKQPNTYESLFCKKEFVQFAKLHGTSVVVTSPKKEIKNKDEIIDELIYAFKLFAKYTSMCDFFSKNEEVDDINTIYLKFLLIPYILGVLCYETISMEIRSDRLKEAKLYFGEFINVVNVYKIAPVEDYLLDEGGEVNQAMNRRNIKVKRAKDEKKLQDFYDDMIKMNVKKGSSQNYNHLCFADHMEEEQIREIYLSLIKCKCLQTLNMMDLIDTEIEVLEMRNRQQVQDKQHQNGKPTQGTKDTHDGQPPHQNKHPKDGIKKPWLFTIKKNMPLADMTQMRNYYRDLVFTPAHNLPTISLEECAKIEMEYALKGEGMAPRSEEERRGNPKSGTIKGAAQNGTDDEEDYEKSSKEESEKELMDREWDDWKDMHQKGIGNKNRNVA
  soluble on expression in E. coli: not soluble

## MKRDDLMQIIKRDGHVADFDPDKIYQAIIKAARTVYVIDDTWRQNLTHVTKKVVIDLEEAHVERPTINMVQSLVENRLMDAGYITIAEHYISYRLQRDLERNGYGDKIVVHLRFEQIK
  soluble on expression in E. coli: soluble

Reference: the DeepSol protein solubility set
